From publication PMC2770657 come the findings set out here.

Read-outs that look alike come from different tables or passages of the source.

What all share (test): EMSA
On the technique in general: Mobility shift assays separate free from complexed probe on a gel.

In data set [1] the target is T1, hPifHD (human Pif1 helicase domain) (Homo sapiens, UniProt Q9H611 206-620).
T1 sequence: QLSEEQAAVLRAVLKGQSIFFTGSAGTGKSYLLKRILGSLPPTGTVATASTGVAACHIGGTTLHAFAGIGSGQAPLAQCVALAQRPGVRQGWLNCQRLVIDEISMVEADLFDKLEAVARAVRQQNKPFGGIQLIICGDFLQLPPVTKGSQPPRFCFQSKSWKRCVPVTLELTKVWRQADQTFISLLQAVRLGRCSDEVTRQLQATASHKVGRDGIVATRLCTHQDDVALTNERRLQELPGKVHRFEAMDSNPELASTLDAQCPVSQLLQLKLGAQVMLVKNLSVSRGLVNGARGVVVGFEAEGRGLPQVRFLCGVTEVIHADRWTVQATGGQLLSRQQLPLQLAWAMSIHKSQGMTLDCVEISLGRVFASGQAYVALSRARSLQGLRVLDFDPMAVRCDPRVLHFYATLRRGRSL

Data set [2] deals with T1, hPifHD (human Pif1 helicase domain). The source holds these as a separate data set.
The target of data set [3] is T2, hPifHD E307Q (Homo sapiens, UniProt Q9H611 206-620, E307Q).
T2 sequence: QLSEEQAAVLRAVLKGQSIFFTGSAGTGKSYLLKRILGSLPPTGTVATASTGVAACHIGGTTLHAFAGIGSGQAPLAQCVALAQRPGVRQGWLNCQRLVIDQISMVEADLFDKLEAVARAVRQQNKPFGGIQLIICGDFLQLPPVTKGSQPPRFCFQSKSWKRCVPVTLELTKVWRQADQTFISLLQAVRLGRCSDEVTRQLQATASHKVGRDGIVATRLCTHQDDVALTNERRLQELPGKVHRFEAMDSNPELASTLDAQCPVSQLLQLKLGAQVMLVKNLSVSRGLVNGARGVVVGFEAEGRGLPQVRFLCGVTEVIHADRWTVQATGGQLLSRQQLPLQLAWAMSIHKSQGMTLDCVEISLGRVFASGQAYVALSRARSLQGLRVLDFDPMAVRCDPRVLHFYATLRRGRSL

B1: T50 (ssDNA)
DNA: TTTTTTTTTTTTTTTTTTTTTTTTTTTTTTTTTTTTTTTTTTTTTTTTTT
On to B1, for which the binding result in data set [1] is “binds”.

B2: T25 (ssDNA)
DNA: TTTTTTTTTTTTTTTTTTTTTTTTT
Take B2: in data set [2], the binding result was “no binding”.

B3: T55 (ssDNA)
DNA: TTTTTTTTTTTTTTTTTTTTTTTTTTTTTTTTTTTTTTTTTTTTTTTTTTTTTTT
For the molecule B3, the binding result in data set [3] is on record as “binds”.

B4: T35 (ssDNA)
DNA: TTTTTTTTTTTTTTTTTTTTTTTTTTTTTTTTTTT
In the case of B4, in data set [1], the binding result is “binds”.
